Measured values published in paper PMC9976466, “Insights into the structure-function relationship of the NorQ/NorD chaperones from Paracoccus denitrificans reveal shared principles of interacting MoxR AAA+/VWA domain proteins” (BMC Biology, 2023).
Changes are numbered by the printed parent chain. In names and notes the source's numbering stands. Several values for one entry are separate records, joined by “and”; a condition that tells them apart may be missing. Equal values may be shown once. One block for each molecule: values may come before it.

Experiments:
NorQ = biological target: T1, NorQ (Paracoccus denitrificans, UniProt Q51664, E109Q); experiment: Blue Native PAGE, ATP-induced shift to hexamer; type: binding; settings: 2 mM ATP, 20 mM MgCl2; Walker B variant, ATPase activity lost
T1 construct: full length, N-terminal 6-His tag (pET-hQ), expressed in E. coli BL21(DE3); ~30 kDa monomer, several oligomeric states up to hexamer

[1] = biological target: the molecule itself; experiment: native gel or EMSA; BN-PAGE of purified NorQ^WBD (~10 μg per lane) after addition of ATP
[2] = biological target: 6-His-tagged NorD (Paracoccus denitrificans); experiment: as above
[3] = biological target: the molecule itself; experiment: native gel or EMSA + SEC; BN-PAGE (NativePAGE 4-16% Bis-Tris, 4 °C) of purified NorQ (14 μg) and NorQ^WB (18 μg), with 2 mM ATP and 20 mM MgCl2 in Fig. 2b; SEC on Superdex 200 in 20 mM TRIS/HCl pH 8, 300 mM NaCl, 10% glycerol

Molecule: Nc1ncnc2c1ncn2[C@@H]1O[C@H](COP(=O)(O)OP(=O)(O)OP(=O)(O)O)[C@@H](O)[C@H]1O [ATP]
Blue Native PAGE, ATP-induced shift to hexamer (NorQ): clear shifting of the oligomerization state to the hexamer (Fig. 2b) for the NorQ^WB

stoichiometry N [2]: 3
B1: untagged NorQ^WB (E109Q), co-expressed with 6-His-tagged NorD (enzyme, Paracoccus denitrificans, UniProt Q51664 1-270, looked up)
chain: MNAHVKTQGNGAVDAPFYLPQGDEVAVFEAAAANDLPVLLKGPTGCGKTRFVAHMAARLGRPLYTVACHDDLSAADLIGRYLLKGGETVWTDGPLTRAVREGAICYLDQVVEARKDVTVVLHPLTDDRRILPIDRTGEEIEAAPGFMLVASYNPGYQNILKTLKPSTRQRFVAMEFDFPEPAREVEIVARESGLDRDRTLGLVRLAGKIRGLKGQDLEEGVSTRLVVYAASLTRRGMNLDRAIEAAMIEPLTDDAEVKRGLRDLAAAIFG
notes: NorQ of Paracoccus denitrificans, Uniprot Q51663, Walker B variant; the norQ gene was cloned into a pET21a backbone with the T7 RBS; Hexameric within the NorQ^WBD complex (BN-PAGE, cryo-EM); trimer to hexamer after addition of ATP; also called NorQ^WB (in NorQ^WBD; Q^WBD)
stoichiometry N [1]: 3

B2: wildtype 6-His-tagged NorQ (enzyme, Paracoccus denitrificans, UniProt Q51664 1-270, looked up)
chain: B1 chain with Q109E
notes: NorQ, MoxR-class AAA+ ATPase of Paracoccus denitrificans, Uniprot Q51663; the norQ gene was cloned into a pET21a backbone; about 30 kDa; Expressed without NorD; Forms several oligomeric states from monomer to hexamer; source: dialysis
stoichiometry N [3]: 6 and 3 and 4 and 5
